Experimental data as given in patent publication US20160083436A1 (Janssen / Centocor, published 2016).
Ends that are not written are not given here.

Assays:
[1] = biological target: T1, human serum albumin (human, UniProt P02768 25-609); assay: SPR (ProteOn XPR-36), albumin immobilized, ABDCon as analyte
T1 construct: Bought from Sigma (A4327); also called HSA
Description: (§1) Each serum albumin was directly immobilized on a ligand channel in the vertical orientation of a GLC chip via standard amine coupling at 2.1 μg/mL at pH 5.0 to obtain surfaces with ligand densities of 500-1000 resonance units. […] The dissociation phases for all concentrations were monitored for two hours at a flow rate of 100 μL/min using PBST (PBS, 0.005% Tween20) as running buffer. A sixth sample (buffer only) was injected to monitor the baseline stability. The surfaces were regenerated using 1 short pulse (18 μL) of 0.8% phosphoric acid.
(§2) The raw response data were first processed by subtracting the buffer only responses and the non-specific binding between the analytes and the chip. Processed data of all five concentrations were globally fit to a 1:1 simple langmuir binding model for each ligand surface.

[2] = biological target: T2, murine serum albumin (murine, UniProt P07724 25-608); assay: as above
T2 construct: Bought from Sigma (A3559); also called mouse serum albumin; Mouse
Description: as §1, §2

[3] = biological target: T3, Rhesus serum albumin (Rhesus, UniProt Q28522 17-600, limits assumed); assay: as above
T3 construct: Bought from Sigma (A4297)
Description: as §1, §2

[4] = biological target: T3, Rhesus serum albumin; assay: SPR
[5] = biological target: T2, murine serum albumin; assay: SPR
[6] = biological target: T2, murine serum albumin; assay: KD column of the mouse PK table; method and albumin species not stated there
[7] = biological target: T1, human serum albumin; assay: SPR, same methods as Example 2
Description: as §1, §2

[8] = biological target: T2, murine serum albumin; assay: SPR, same methods as Example 2
Description: as §1, §2

T2 sequence (P07724 25-608 limits assumed): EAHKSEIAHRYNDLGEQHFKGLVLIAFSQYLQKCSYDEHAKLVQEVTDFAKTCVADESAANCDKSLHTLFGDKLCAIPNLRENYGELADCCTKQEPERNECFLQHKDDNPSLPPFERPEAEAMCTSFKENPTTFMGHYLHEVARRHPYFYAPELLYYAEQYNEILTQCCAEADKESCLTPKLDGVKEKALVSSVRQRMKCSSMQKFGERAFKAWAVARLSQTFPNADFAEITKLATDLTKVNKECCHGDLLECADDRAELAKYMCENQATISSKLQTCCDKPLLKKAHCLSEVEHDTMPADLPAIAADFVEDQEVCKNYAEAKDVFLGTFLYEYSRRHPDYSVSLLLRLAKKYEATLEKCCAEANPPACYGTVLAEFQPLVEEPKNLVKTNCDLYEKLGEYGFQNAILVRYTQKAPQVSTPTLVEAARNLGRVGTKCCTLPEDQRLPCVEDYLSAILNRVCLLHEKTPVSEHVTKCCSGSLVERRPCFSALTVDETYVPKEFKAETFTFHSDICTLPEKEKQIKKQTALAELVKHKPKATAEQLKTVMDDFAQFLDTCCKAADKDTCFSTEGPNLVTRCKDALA
T3 sequence (Q28522 17-600 limits assumed): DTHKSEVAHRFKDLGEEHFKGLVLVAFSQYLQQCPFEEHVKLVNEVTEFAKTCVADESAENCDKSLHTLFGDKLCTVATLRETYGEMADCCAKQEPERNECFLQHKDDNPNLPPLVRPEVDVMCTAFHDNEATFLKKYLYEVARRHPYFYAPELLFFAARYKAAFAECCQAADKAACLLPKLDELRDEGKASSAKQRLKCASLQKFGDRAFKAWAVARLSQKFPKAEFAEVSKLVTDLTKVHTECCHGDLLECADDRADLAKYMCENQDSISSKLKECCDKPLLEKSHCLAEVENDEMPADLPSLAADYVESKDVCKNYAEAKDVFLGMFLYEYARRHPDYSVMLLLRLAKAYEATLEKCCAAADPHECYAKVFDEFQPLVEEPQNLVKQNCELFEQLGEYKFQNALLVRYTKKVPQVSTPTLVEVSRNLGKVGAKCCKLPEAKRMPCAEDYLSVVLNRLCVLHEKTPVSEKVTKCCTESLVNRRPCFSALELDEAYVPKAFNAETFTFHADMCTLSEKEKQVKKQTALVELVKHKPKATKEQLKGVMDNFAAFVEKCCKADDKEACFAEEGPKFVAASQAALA

B1: ABDCon (non-natural albumin binding domain consensus) (designed binder)
chain: LKEAKEKAIEELKKAGITSDYYFDLINKAKTVEGVNALKDEILKA
modifications: not fully specified (N-terminus)
notes: Expressed in E. coli with an N-terminal 8-His tag; measured mass 6383 Da; not shown: N-terminal 8-His tag
- Kd [1]: 0.0748 nM
- koff [1]: 3.02e-05 s⁻¹
- kon [1]: 404000 M⁻¹ s⁻¹
- Kd [2]: 3.22 nM
- koff [2]: 0.000776 s⁻¹
- kon [2]: 241000 M⁻¹ s⁻¹
- Kd [3]: 0.0601 nM
- koff [3]: 6.78e-05 s⁻¹
- kon [3]: 1.13e+06 M⁻¹ s⁻¹

B2: ABDCon2 (designed binder)
chain: LKEAKEKAIEELKKAGITSDAYFDLINKAKTVEGVNALKDEILKA
modifications: not fully specified
notes: Expressed and purified as described for ABDCon; also called ABDCon Y21A; not shown: N-terminal 8-His tag as for ABDCon
- Kd [4]: 17.5 nM

B3: ABDCon3 (designed binder)
chain: LKEAKEKAIEELKKAGITSDKYFDLINKAKTVEGVNALKDEILKA
modifications: not fully specified
notes: Expressed and purified as described for ABDCon; also called ABDCon Y21K; not shown: N-terminal 8-His tag as for ABDCon
- Kd [5]: 103 nM
- Kd [4]: 5.1 nM

B4: ABDCon4 (designed binder)
chain: LKEAKEKAIEELKKAGITSDYAFDLINKAKTVEGVNALKDEILKA
modifications: not fully specified
notes: Expressed and purified as described for ABDCon; also called ABDCon Y22A; not shown: N-terminal 8-His tag as for ABDCon
- Kd [5]: 571 nM
- Kd [4]: 43.7 nM

B5: ABDCon5 (designed binder)
chain: LKEAKEKAIEELKKAGITSDYSFDLINKAKTVEGVNALKDEILKA
modifications: not fully specified
notes: Expressed and purified as described for ABDCon; also called ABDCon Y22S; not shown: N-terminal 8-His tag as for ABDCon
- Kd [5]: 1650 nM
- Kd [4]: 104 nM

B6: ABDCon6 (designed binder)
chain: LKEAKEKAIEELKKAGITSDYVFDLINKAKTVEGVNALKDEILKA
modifications: not fully specified
notes: Expressed and purified as described for ABDCon; also called ABDCon Y22V; not shown: N-terminal 8-His tag as for ABDCon
- Kd [5]: 190 nM
- Kd [4]: 8.4 nM

B7: ABDCon7 (designed binder)
chain: LKEAKEKAIEELKKAGITSDYYFDLINKAKTVEGVNALKDQILKA
modifications: not fully specified
notes: Expressed and purified as described for ABDCon; also called ABDCon E41Q; not shown: N-terminal 8-His tag as for ABDCon
- Kd [5]: 20.6 nM
- Kd [4]: 0.5 nM

B8: ABDCon8 (designed binder)
chain: LKEAKEKAIEELKKAGITSDYYFDLINKADTVEGVNALKDEILKA
modifications: not fully specified
notes: Expressed and purified as described for ABDCon; also called ABDCon K30D; not shown: N-terminal 8-His tag as for ABDCon
- Kd [5]: 1000 nM
- Kd [4]: 65 nM

B9: ABDCon9 (designed binder)
chain: LKEAKEKAIEELKKAGITSDYYFDLINKAKAVEGVNALKDEILKA
modifications: not fully specified
notes: Expressed and purified as described for ABDCon; also called ABDCon T31A; not shown: N-terminal 8-His tag as for ABDCon
- Kd [5]: 551 nM
- Kd [4]: 206 nM

B10: ABDCon10 (designed binder)
chain: LKEAKEKAIEELKKAGITSDYYFDLINKAKTVEGVNVLKDEILKA
modifications: not fully specified
notes: Expressed and purified as described for ABDCon; also called ABDCon A37V; not shown: N-terminal 8-His tag as for ABDCon
- Kd [5]: 37.8 nM
- Kd [4]: 1.3 nM

B11: Tencon25-ABDCon fusion protein (designed binder)
chain: MLPAPKNLVVSEVTEDSARLSWTAPDAAFDSFLIQYQESEKVGEAIVLTVPGSERSYDLTGLKPGTEYTVSIYGVKGGHRSNPLSAIFTTGGGGSGGGGSLKEAKEKAIEELKKAGITSDYYFDLINKAKTVEGVNALKDEILKA
notes: not shown: C-terminal poly-histidine tag
- Kd [6]: 1.86 nM

B12: ABDCon12 (designed binder)
chain: TIDEWLLKEAKEKAIEELKKAGITSDYYFDLINKAKTVEGVNALKDEILKA
notes: also called ABDCon with N-terminal TIDEWL extension; not shown: N-terminal poly histidine tag
- Kd [7]: 0.7 nM
- Kd [8]: 8.2 nM
